Molecular target: T1, karyopherin beta 2 (Kapβ2), endogenous (human (endogenous in HEK293), UniProt Q92973 1-898)
T1 sequence (looked up): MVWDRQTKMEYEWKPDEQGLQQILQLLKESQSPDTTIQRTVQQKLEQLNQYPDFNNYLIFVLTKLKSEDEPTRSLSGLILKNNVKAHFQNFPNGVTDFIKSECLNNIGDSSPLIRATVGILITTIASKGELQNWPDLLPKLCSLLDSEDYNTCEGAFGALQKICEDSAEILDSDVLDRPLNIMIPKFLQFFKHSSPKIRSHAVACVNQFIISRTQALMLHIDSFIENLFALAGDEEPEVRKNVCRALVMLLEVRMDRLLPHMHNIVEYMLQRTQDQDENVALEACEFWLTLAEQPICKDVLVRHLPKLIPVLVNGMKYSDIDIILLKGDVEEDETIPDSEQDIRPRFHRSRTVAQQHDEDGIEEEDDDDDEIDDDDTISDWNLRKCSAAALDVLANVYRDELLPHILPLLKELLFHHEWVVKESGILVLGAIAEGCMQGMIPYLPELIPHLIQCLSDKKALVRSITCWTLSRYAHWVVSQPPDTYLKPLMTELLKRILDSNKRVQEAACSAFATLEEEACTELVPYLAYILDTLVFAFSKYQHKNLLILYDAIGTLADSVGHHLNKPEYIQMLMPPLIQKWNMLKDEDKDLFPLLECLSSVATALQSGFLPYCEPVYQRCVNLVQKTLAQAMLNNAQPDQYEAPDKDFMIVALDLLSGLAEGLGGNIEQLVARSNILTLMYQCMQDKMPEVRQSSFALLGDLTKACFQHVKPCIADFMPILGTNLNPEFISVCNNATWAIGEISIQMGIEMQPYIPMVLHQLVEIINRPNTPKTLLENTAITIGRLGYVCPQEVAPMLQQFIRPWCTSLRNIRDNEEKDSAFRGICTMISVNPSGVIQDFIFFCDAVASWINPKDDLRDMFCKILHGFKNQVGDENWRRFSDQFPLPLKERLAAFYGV
Assay: cell-based or functional assay

B1: EGFP-ULK2 WT (natural protein, human, UniProt Q8IYT8 1-1036, looked up)
chain: MEVVGDFEYSKRDLVGHGAFAVVFRGRHRQKTDWEVAIKSINKKNLSKSQILLGKEIKILKELQHENIVALYDVQELPNSVFLVMEYCNGGDLADYLQAKGTLSEDTIRVFLHQIAAAMRILHSKGIIHRDLKPQNILLSYANRRKSSVSGIRIKIADFGFARYLHSNMMAATLCGSPMYMAPEVIMSQHYDAKADLWSIGTVIYQCLVGKPPFQANSPQDLRMFYEKNRSLMPSIPRETSPYLANLLLGLLQRNQKDRMDFEAFFSHPFLEQGPVKKSCPVPVPMYSGSVSGSSCGSSPSCRFASPPSLPDMQHIQEENLSSPPLGPPNYLQVSKDSASTSSKNSSCDTDDFVLVPHNISSDHSCDMPVGTAGRRASNEFLVCGGQCQPTVSPHSETAPIPVPTQIRNYQRIEQNLTSTASSGTNVHGSPRSAVVRRSNTSPMGFLRPGSCSPVPADTAQTVGRRLSTGSSRPYSPSPLVGTIPEQFSQCCCGHPQGHDSRSRNSSGSPVPQAQSPQSLLSGARLQSAPTLTDIYQNKQKLRKQHSDPVCPSHTGAGYSYSPQPSRPGSLGTSPTKHLGSSPRSSDWFFKTPLPTIIGSPTKTTAPFKIPKTQASSNLLALVTRHGPAEEQSKDGNEPRECAHCLLVQGSERQRAEQQSKAVFGRSVSTGKLSDQQGKTPICRHQGSTDSLNTERPMDIAPAGACGGVLAPPAGTAASSKAVLFTVGSPPHSAAAPTCTHMFLRTRTTSVGPSNSGGSLCAMSGRVCVGSPPGPGFGSSPPGAEAAPSLRYVPYGASPPSLEGLITFEAPELPEETLMEREHTDTLRHLNVMLMFTECVLDLTAMRGGNPELCTSAVSLYQIQESVVVDQISQLSKDWGRVEQLVLYMKAAQLLAASLHLAKAQIKSGKLSPSTAVKQVVKNLNERYKFCITMCKKLTEKLNRFFSDKQRFIDEINSVTAEKLIYNCAVEMVQSAALDEMFQQTEDIVYRYHKAALLLEGLSRILQDPADIENVHKYKCSIERRLSALCHSTATV
- nuclear-to-total fluorescence ratio (Fn/t) of EGFP-ULK2 WT in HEK293 cells, confocal microscopy (Fig 3D): 44.5

B2: Uncoordinated 51-like kinase 2 (ULK2), endogenous (natural protein, human (endogenous in HEK293), UniProt Q8IYT8 1-1036, looked up)
chain: MEVVGDFEYSKRDLVGHGAFAVVFRGRHRQKTDWEVAIKSINKKNLSKSQILLGKEIKILKELQHENIVALYDVQELPNSVFLVMEYCNGGDLADYLQAKGTLSEDTIRVFLHQIAAAMRILHSKGIIHRDLKPQNILLSYANRRKSSVSGIRIKIADFGFARYLHSNMMAATLCGSPMYMAPEVIMSQHYDAKADLWSIGTVIYQCLVGKPPFQANSPQDLRMFYEKNRSLMPSIPRETSPYLANLLLGLLQRNQKDRMDFEAFFSHPFLEQGPVKKSCPVPVPMYSGSVSGSSCGSSPSCRFASPPSLPDMQHIQEENLSSPPLGPPNYLQVSKDSASTSSKNSSCDTDDFVLVPHNISSDHSCDMPVGTAGRRASNEFLVCGGQCQPTVSPHSETAPIPVPTQIRNYQRIEQNLTSTASSGTNVHGSPRSAVVRRSNTSPMGFLRPGSCSPVPADTAQTVGRRLSTGSSRPYSPSPLVGTIPEQFSQCCCGHPQGHDSRSRNSSGSPVPQAQSPQSLLSGARLQSAPTLTDIYQNKQKLRKQHSDPVCPSHTGAGYSYSPQPSRPGSLGTSPTKHLGSSPRSSDWFFKTPLPTIIGSPTKTTAPFKIPKTQASSNLLALVTRHGPAEEQSKDGNEPRECAHCLLVQGSERQRAEQQSKAVFGRSVSTGKLSDQQGKTPICRHQGSTDSLNTERPMDIAPAGACGGVLAPPAGTAASSKAVLFTVGSPPHSAAAPTCTHMFLRTRTTSVGPSNSGGSLCAMSGRVCVGSPPGPGFGSSPPGAEAAPSLRYVPYGASPPSLEGLITFEAPELPEETLMEREHTDTLRHLNVMLMFTECVLDLTAMRGGNPELCTSAVSLYQIQESVVVDQISQLSKDWGRVEQLVLYMKAAQLLAASLHLAKAQIKSGKLSPSTAVKQVVKNLNERYKFCITMCKKLTEKLNRFFSDKQRFIDEINSVTAEKLIYNCAVEMVQSAALDEMFQQTEDIVYRYHKAALLLEGLSRILQDPADIENVHKYKCSIERRLSALCHSTATV
- nuclear-to-total fluorescence ratio (Fn/t) of endogenous ULK2 in FSK-treated HEK293 cells (normal DMEM-grown cells: 49.36+/−4.90), confocal microscopy (Fig 6Q): 52.7
- nuclear-to-total fluorescence ratio (Fn/t) of endogenous ULK2 in H89-treated HEK293 cells (normal DMEM-grown cells: 49.36+/−4.90), confocal microscopy (Fig 6Q): 35.8

B3: EGFP-ULK2 PY-NLS mutant (P794A) (natural protein, human, UniProt Q8IYT8 1-1036, looked up)
chain: MEVVGDFEYSKRDLVGHGAFAVVFRGRHRQKTDWEVAIKSINKKNLSKSQILLGKEIKILKELQHENIVALYDVQELPNSVFLVMEYCNGGDLADYLQAKGTLSEDTIRVFLHQIAAAMRILHSKGIIHRDLKPQNILLSYANRRKSSVSGIRIKIADFGFARYLHSNMMAATLCGSPMYMAPEVIMSQHYDAKADLWSIGTVIYQCLVGKPPFQANSPQDLRMFYEKNRSLMPSIPRETSPYLANLLLGLLQRNQKDRMDFEAFFSHPFLEQGPVKKSCPVPVPMYSGSVSGSSCGSSPSCRFASPPSLPDMQHIQEENLSSPPLGPPNYLQVSKDSASTSSKNSSCDTDDFVLVPHNISSDHSCDMPVGTAGRRASNEFLVCGGQCQPTVSPHSETAPIPVPTQIRNYQRIEQNLTSTASSGTNVHGSPRSAVVRRSNTSPMGFLRPGSCSPVPADTAQTVGRRLSTGSSRPYSPSPLVGTIPEQFSQCCCGHPQGHDSRSRNSSGSPVPQAQSPQSLLSGARLQSAPTLTDIYQNKQKLRKQHSDPVCPSHTGAGYSYSPQPSRPGSLGTSPTKHLGSSPRSSDWFFKTPLPTIIGSPTKTTAPFKIPKTQASSNLLALVTRHGPAEEQSKDGNEPRECAHCLLVQGSERQRAEQQSKAVFGRSVSTGKLSDQQGKTPICRHQGSTDSLNTERPMDIAPAGACGGVLAPPAGTAASSKAVLFTVGSPPHSAAAPTCTHMFLRTRTTSVGPSNSGGSLCAMSGRVCVGSPPGPGFGSSPPGAEAAPSLRYVAYGASPPSLEGLITFEAPELPEETLMEREHTDTLRHLNVMLMFTECVLDLTAMRGGNPELCTSAVSLYQIQESVVVDQISQLSKDWGRVEQLVLYMKAAQLLAASLHLAKAQIKSGKLSPSTAVKQVVKNLNERYKFCITMCKKLTEKLNRFFSDKQRFIDEINSVTAEKLIYNCAVEMVQSAALDEMFQQTEDIVYRYHKAALLLEGLSRILQDPADIENVHKYKCSIERRLSALCHSTATV
- nuclear-to-total fluorescence ratio (Fn/t) of the EGFP-ULK2 PY-NLS (P794A) mutant in HEK293 cells, confocal microscopy (Fig 3D): 17.1

B4: EGFP-ULK2 P242A mutant (natural protein, human, UniProt Q8IYT8 1-1036, looked up)
chain: MEVVGDFEYSKRDLVGHGAFAVVFRGRHRQKTDWEVAIKSINKKNLSKSQILLGKEIKILKELQHENIVALYDVQELPNSVFLVMEYCNGGDLADYLQAKGTLSEDTIRVFLHQIAAAMRILHSKGIIHRDLKPQNILLSYANRRKSSVSGIRIKIADFGFARYLHSNMMAATLCGSPMYMAPEVIMSQHYDAKADLWSIGTVIYQCLVGKPPFQANSPQDLRMFYEKNRSLMPSIPRETSAYLANLLLGLLQRNQKDRMDFEAFFSHPFLEQGPVKKSCPVPVPMYSGSVSGSSCGSSPSCRFASPPSLPDMQHIQEENLSSPPLGPPNYLQVSKDSASTSSKNSSCDTDDFVLVPHNISSDHSCDMPVGTAGRRASNEFLVCGGQCQPTVSPHSETAPIPVPTQIRNYQRIEQNLTSTASSGTNVHGSPRSAVVRRSNTSPMGFLRPGSCSPVPADTAQTVGRRLSTGSSRPYSPSPLVGTIPEQFSQCCCGHPQGHDSRSRNSSGSPVPQAQSPQSLLSGARLQSAPTLTDIYQNKQKLRKQHSDPVCPSHTGAGYSYSPQPSRPGSLGTSPTKHLGSSPRSSDWFFKTPLPTIIGSPTKTTAPFKIPKTQASSNLLALVTRHGPAEEQSKDGNEPRECAHCLLVQGSERQRAEQQSKAVFGRSVSTGKLSDQQGKTPICRHQGSTDSLNTERPMDIAPAGACGGVLAPPAGTAASSKAVLFTVGSPPHSAAAPTCTHMFLRTRTTSVGPSNSGGSLCAMSGRVCVGSPPGPGFGSSPPGAEAAPSLRYVPYGASPPSLEGLITFEAPELPEETLMEREHTDTLRHLNVMLMFTECVLDLTAMRGGNPELCTSAVSLYQIQESVVVDQISQLSKDWGRVEQLVLYMKAAQLLAASLHLAKAQIKSGKLSPSTAVKQVVKNLNERYKFCITMCKKLTEKLNRFFSDKQRFIDEINSVTAEKLIYNCAVEMVQSAALDEMFQQTEDIVYRYHKAALLLEGLSRILQDPADIENVHKYKCSIERRLSALCHSTATV
- nuclear-to-total fluorescence ratio (Fn/t) of the EGFP-ULK2 P242A mutant in HEK293 cells, confocal microscopy (Fig 3D): 67.2
